Test results: the supplement of paper PMC5998384

Columns and labels:
HeLa Kyoto [1] = test: solubility in G1/S (NP-40 vs SDS abundance) (log2 ratio); higher = more soluble; conditions: cell cycle stage: G1/S
HeLa Kyoto [2] = test: solubility change mitosis vs G1/S (difference of NP-40 vs SDS log2 ratios) (log2 ratio difference); higher = more soluble in mitosis
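For solubility change mitosis vs G1/S (difference of NP-40 vs SDS log2 ratios) in this document: synchronized HeLa Kyoto cells (double thymidine block for G1/S, nocodazole release for mitosis), protein amounts in NP-40 versus SDS lysates quantified by mass spectrometry, three biological replicates.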
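For solubility in G1/S (NP-40 vs SDS abundance) in this document: HeLa Kyoto cells arrested at G1/S by double thymidine block, proteins quantified by TMT10plex mass spectrometry in mild NP-40 versus SDS extracts, three biological replicates.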

Sequence | solubility in G1/S (log2) (HeLa Kyoto [1]) | solubility change mitosis (log2) (HeLa Kyoto [2])
MADPVAGIAGSAAKSVRPFRSSEAYVEAMKEDLAEWLNALYGLGLPGGGDGFLTGLATGTTLCQHANAVTEAARALAAARPARGVAFQAHSVVPGSFMARDNVATFIGWCRVELGVPEVLMFETEDLVLRKNEKSVVLCLLEVARRGARLGLLAPRLVQFEQEIERELRAAPPAPNAPAAGEDTTETAPAPGTPARGPRMTPSDLRNLDELVREILGRCTCPDQFPMIKVSEGKYRVGDSSLLIFVRVLRSHVMVRVGGGWDTLEHYLDKHDPCRCSSTAHRPPQPRVCTFSPQRVSPTTSPRPASPVPGSERRGSRPEMTPVSLRSTKEGPETPPRPRDQLPPHPRSRRYSGDSDSSASSAQSGPLGTRSDDTGTGPRRERPSRRLTTGTPASPRRPPALRSQSRDRLDRGRPRGAPGGRGAQLSVPSPARRARSQSREEQAVLLVRRDRDGQHSWVPRGRGSGGSGRSTPQTPRARSPAAPRLSRVSSPSPELGTTPASIFRTPLQLDPQQEQQLFRRLEEEFLANARALEAVASVTPTGPVPDPARAPDPPAPDSAYCSSSSSSSSLSVLGGKCGQPGDSGRTANGLPGPRSQALSSSSDEGSPCPGMGGPLDAPGSPLACTEPSRTWARGRMDTQPDRKPSRIPTPRGPRRPSGPAELGTWHALHSVTPRAEPDSWM [GAS2L1] | 0.282 | 0.169
MAEASSANLGSGCEEKRHEGSSSESVPPGTTISRVKLLDTMVDTFLQKLVAAGSYQRFTDCYKCFYQLQPAMTQQIYDKFIAQLQTSIREEISDIKEEGNLEAVLNALDKIVEEGKVRKEPAWRPSGIPEKDLHSVMAPYFLQQRDTLRRHVQKQEAENQQLADAVLAGRRQVEELQLQVQAQQQAWQALHREQRELVAVLREPE [PMF1] | 0.135 | 0.643
MAEDEPDAKSPKTGGRAPPGGAEAGEPTTLLQRLRGTISKAVQNKVEGILQDVQKFSDNDKLYLYLQLPSGPTTGDKSSEPSTLSNEEYMYAYRWIRNHLEEHTDTCLPKQSVYDAYRKYCESLACCRPLSTANFGKIIREIFPDIKARRLGGRGQSKYCYSGIRRKTLVSMPPLPGLDLKGSESPEMGPEVTPAPRDELVEAACALTCDWAERILKRSFSSIVEVARFLLQQHLISARSAHAHVLKAMGLAEEDEHAPRERSSKPKNGLENPEGGAHKKPERLAQPPKDLEARTGAGPLARGERKKSVVESSAPGANNLQVNALVARLPLLLPRAPRSLIPPIPVSPPILAPRLSSGALKVATLPLSSRAGAPPAAVPIINMILPTVPALPGPGPGPGRAPPGGLTQPRGTENREVGIGGDQGPHDKGVKRTAEVPVSEASGQAPPAKAAKQDIEDTASDAKRKRGRPRKKSGGSGERNSTPLKSAAAMESAQSSRLPWETWGSGGEGNSAGGAERPGPMGEAEKGAVLAQGQGDGTVSKGGRGPGSQHTKEAEDKIPLVPSKVSVIKGSRSQKEAFPLAKGEVDTAPQGNKDLKEHVLQSSLSQEHKDPKATPP [RFX5] | 0.487 | -0.117
MAEGGGPEPGEQERRSSGPRPPSARDLQLALAELYEDEVKCKSSKSNRPKATVFKSPRTPPQRFYSSEHEYSGLNIVRPSTGKIVNELFKEAREHGAVPLNEATRASGDDKSKSFTGGGYRLGSSFCKRSEYIYGENQLQDVQILLKLWSNGFSLDDGELRPYNEPTNAQFLESVKRGEIPLELQRLVHGGQVNLDMEDHQDQEYIKPRLRFKAFSGEGQKLGSLTPEIVSTPSSPEEEDKSILNAVVLIDDSVPTTKIQIRLADGSRLIQRFNSTHRILDVRNFIVQSRPEFAALDFILVTSFPNKELTDESLTLLEADILNTVLLQQLK [UBXN2B] | 0.562 | 0.053
MAEGSRGGPTCSGVGGRQDPVSGSGGCNFPEYELPELNTRAFHVGAFGELWRGRLRGAGDLSLREPPASALPGSQAADSDREDAAVARDLDCSLEAAAELRAVCGLDKLKCLEDGEDPEVIPENTDLVTLGVRKRFLEHREETITIDRACRQETFVYEMESHAIGKKPENSADMIEEGELILSVNILYPVIFHKHKEHKPYQTMLVLGSQKLTQLRDSIRCVSDLQIGGEFSNTPDQAPEHISKDLYKSAFFYFEGTFYNDKRYPECRDLSRTIIEWSESHDRGYGKFQTARMEDFTFNDLCIKLGFPYLYCHQGDCEHVIVITDIRLVHHDDCLDRTLYPLLIKKHWLWTRKCFVCKMYTARWVTNNDSFAPEDPCFFCDVCFRMLHYDSEGNKLGEFLAYPYVDPGTFN [SNAPC3] | -0.0618 | -0.167
MAELGEADEAELQRLVAAEQQKAQFTAQVHHFMELCWDKCVEKPGNRLDSRTENCLSSCVDRFIDTTLAITSRFAQIVQKGGQ [TIMM8B] | -0.938 | 0.734
MAEPGEGLPEEVLALIFRHLSLRDRAAAARVCRAWAAAATCSAVWHDTKISCECELEGMLPPYLSACLDHIHNLRLEFEPSRKPSRRAAIELLMVLAGRAPGLRGLRLECRGEKPLFDAGRDVLEAVHAVCGAASQLRHLDLRRLSFTLDDALVLQAARSCPELHSLFLDNSTLVGSVGPGSVLELLEACPRLRALGLHLASLSHAILEALAAPDRAPFALLALRCACPEDARASPLPNEAWVALRRRHPGLAVELELEPALPAESVTRVLQPAVPVAALRLNLSGDTVGPVRFAAHHYAATLCALEVRAAASAELNAALEELAARCAALREVHCFCVVSHSVLDAFRAHCPRLRTYTLKLTREPHPWRPTLVA [FBXL8] | -0.196 | -0.0843
MAESGGSSGGAGGGGAFGAGPGPERPNSTADKNGALKCTFSAPSHSTSLLQGLATLRAQGQLLDVVLTINREAFPAHKVVLAACSDYFRAMFTGGMREASQDVIELKGVSARGLRHIIDFAYSAEVTLDLDCVQDVLGAAVFLQMLPVVELCEEFLKAAMSVETCLNIGQMATTFSLASLRESVDAFTFRHFLQIAEEEDFLRLPLERLVFFLQSNRLQSCAEIDLFRAAVRWLQHDPARRPRASHVLCHIRFPLMQSSELVDSVQTLDIMVEDVLCRQYLLEAFNYQVLPFRQHEMQSPRTAVRSDVPSLVTFGGTPYTDSDRSVSSKVYQLPEPGARHFRELTEMEVGCSHTCVAVLDNFVYVAGGQHLQYRSGEGAVDACYRYDPHLNRWLRLQAMQESRIQFQLNVLCGMVYATGGRNRAGSLASVERYCPRRNEWGYACSLKRRTWGHAGAASGGRLYISGGYGISVEDKKALHCYDPVADQWEFKAPMSEPRVLHAMVGAGGRIYALGGRMDHVDRCFDVLAVEYYVPETDQWTSVSPMRAGQSEAGCCLLERKIYIVGGYNWRLNNVTGIVQVYNTDTDEWERDLHFPESFAGIACAPVLLPRAGTRR [KLHL26] | -0.0553 | -0.0565
MAETKIIYHMDEEETPYLVKLPVAPERVTLADFKNVLSNRPVHAYKFFFKSMDQDFGVVKEEIFDDNAKLPCFNGRVVSWLVLAEGAHSDAGSQGTDSHTDLPPPLERTGGIGDSRPPSFHPNVASSRDGMDNETGTESMVSHRRERARRRNREEAARTNGHPRGDRRRDVGLPPDSASTALSSELESSSFVDSDEDGSTSRLSSSTEQSTSSRLIRKHKRRRRKQRLRQADRASSFSSITDSTMSLNIVTVTLNMERHHFLGISIVGQSNDRGDGGIYIGSIMKGGAVAADGRIEPGDMLLQVNDVNFENMSNDDAVRVLREIVSQTGPISLTVAKCWDPTPRSYFTVPRADPVRPIDPAAWLSHTAALTGALPRYGTSPCSSAVTRTSSSSLTSSVPGAPQLEEAPLTVKSDMSAVVRVMQLPDSGLEIRDRMWLKITIANAVIGADVVDWLYTHVEGFKERREARKYASSLLKHGFLRHTVNKITFSEQCYYVFGDLCSNLATLNLNSGSSGTSDQDTLAPLPHPAAPWPLGQGYPYQYPGPPPCFPPAYQDPGFSYGSGSTGSQQSEGSKSSGSTRSSRRAPGREKERRAAGAGGSGSESDHTAPSGVGSSWRERPAGQLSRGSSPRSQASATAPGLPPPHPTTKAYTVVGGPPGGPPVRELAAVPPELTGSRQSFQKAMGNPCEFFVDIM [DVL1] | -0.0781 | 0.0447
MAGAATGSRTPGRSELVEGCGWRCPEHGDRVAELFCRRCRRCVCALCPVLGAHRGHPVGLALEAAVHVQKLSQECLKQLAIKKQQHIDNITQIEDATEKLKANAESSKTWLKGKFTELRLLLDEEEALAKKFIDKNTQLTLQVYREQADSCREQLDIMNDLSNRVWSISQEPDPVQRLQAYTATEQEMQQQMSLGELCHPVPLSFEPVKSFFKGLVEAVESTLQTPLDIRLKESINCQLSDPSSTKPGTLLKTSPSPERSLLLKYARTPTLDPDTMHARLRLSADRLTVRCGLLGSLGPVPVLRFDALWQVLARDCFATGRHYWEVDVQEAGAGWWVGAAYASLRRRGASAAARLGCNRQSWCLKRYDLEYWAFHDGQRSRLRPRDDLDRLGVFLDYEAGVLAFYDVTGGMSHLHTFRATFQEPLYPALRLWEGAISIPRLP [TRIM14] | -0.209 | -0.0649
MAGAGGQHHPPGAAGGAAAGAGAAVTSAAASAGPGEDSSDSEAEQEGPQKLIRKVSTSGQIRTKTSIKEGQLLKQTSSFQRWKKRYFKLRGRTLYYAKDSKSLIFDEVDLSDASVAEASTKNANNSFTIITPFRRLMLCAENRKEMEDWISSLKSVQTREPYEVAQFNVEHFSGMHNWYACSHARPTFCNVCRESLSGVTSHGLSCEVCKFKAHKRCAVRATNNCKWTTLASIGKDIIEDEDGVAMPHQWLEGNLPVSAKCAVCDKTCGSVLRLQDWKCLWCKTMVHTACKDLYHPICPLGQCKVSIIPPIALNSTDSDGFCRATFSFCVSPLLVFVNSKSGDNQGVKFLRRFKQLLNPAQVFDLMNGGPHLGLRLFQKFDNFRILVCGGDGSVGWVLSEIDKLNLNKQCQLGVLPLGTGNDLARVLGWGGSYDDDTQLPQILEKLERASTKMLDRWSIMTYELKLPPKASLLPGPPEASEEFYMTIYEDSVATHLTKILNSDEHAVVISSAKTLCETVKDFVAKVEKTYDKTLENAVVADAVASKCSVLNEKLEQLLQALHTDSQAAPVLPGLSPLIVEEDAVESSSEESLGESKEQLGDDVTKPSSQKAVKPREIMLRANSLKKAVRQVIEEAGKVMDDPTVHPCEPANQSSDYDSTETDESKEEAKDDGAKESITVKTAPRSPDARASYGHSQTDSVPGPAVAASKENLPVLNTRIICPGLRAGLAASIAGSSIINKMLLANIDPFGATPFIDPDLDSVDGYSEKCVMNNYFGIGLDAKISLEFNNKREEHPEKCRSRTKNLMWYGVLGTRELLQRSYKNLEQRVQLECDGQYIPLPSLQGIAVLNIPSYAGGTNFWGGTKEDDIFAAPSFDDKILEVVAIFDSMQMAVSRVIKLQHHRIAQCRTVKITIFGDEGVPVQVDGEAWVQPPGIIKIVHKNRAQMLTRDRAFESTLKSWEDKQKCDSGKPVLRTHLYIHHAIDLATEEVSQMQLCSQAAEELITRICDAATIHCLLEQELAHAVNACSHALNKANPRCPESLTRDTATEIAINVKALYNETESLLVGRVPLQLESPHEERVSNALHSVEVELQKLTEIPWLYYILHPNEDEEPPMDCTKRNNRSTVFRIVPKFKKEKVQKQKTSSQPVQKWGTEEVAAWLDLLNLGEYKDIFIRHDIRGAELLHLERRDLKDLGIPKVGHVKRILQGIKELGRSTPQSEV [DGKH] | -0.212 | 0.0195
MAGEEINEDYPVEIHEYLSAFENSIGAVDEMLKTMMSVSRNELLQKLDPLEQAKVDLVSAYTLNSMFWVYLATQGVNPKEHPVKQELERIRVYMNRVKEITDKKKAGKLDRGAASRFVKNALWEPKSKNASKVANKGKSKS [C1D] | -0.223 | 0.679
